Experimental data from patent US20180155451A1 (published 2018).

What follows are binders tested against T1, FcγRIa extracellular domain with C-terminal His tag (human, UniProt P12314 16-292) (assay: SPR Biacore, relative FcγRIa binding vs GpH7-A5/GpH7-B3/GpL16-k0).
T1 construct: extracellular domain; also called FcgRI; CD64; not shown: His tag at the C terminus
T1 sequence (P12314 16-292): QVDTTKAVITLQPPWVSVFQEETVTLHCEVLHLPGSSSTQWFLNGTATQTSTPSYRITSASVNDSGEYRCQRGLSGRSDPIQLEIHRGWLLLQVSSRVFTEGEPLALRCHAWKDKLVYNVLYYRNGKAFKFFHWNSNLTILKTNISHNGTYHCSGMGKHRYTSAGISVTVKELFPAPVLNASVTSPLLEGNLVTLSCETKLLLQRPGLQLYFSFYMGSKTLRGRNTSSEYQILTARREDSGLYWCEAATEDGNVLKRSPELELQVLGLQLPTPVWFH

He/Con_1a	Binder
106 % of HeCon Ab (=100)	GpH7-A5/GpH7-B3 variant T335_05P/GpL16-k0 (antibody, human IgG1, kappa, mutation in one H chain only; also called He Ab T335_05P; T335P) heavy 1: not shown heavy 2: not shown light: DIVMTQSPLSLPVTPGEPASISCQASESLVHSNRNTYLHWYLQKPGQSPQLLIYKVSNRFSGVPDRFSGSGSGTDFTLKISRVEAEDVGVYYCSQNTHVPPTFGQGTKVEIERTVAAPSVFIFPPSDEQLKSGTASVVCLLNNFYPREAKVQWKVDNALQSGNSQESVTEQDSKDSTYSLSSTLTLSKADYEKHKVYACEVTHQGLSSPVTKSFNRGEC
105 % of HeCon Ab (=100)	GpH7-A5/GpH7-B3 variant T335_04F/GpL16-k0 (antibody, human IgG1, kappa, mutation in one H chain only; also called He Ab T335_04F; T335F) heavy 1: not shown heavy 2: not shown light: DIVMTQSPLSLPVTPGEPASISCQASESLVHSNRNTYLHWYLQKPGQSPQLLIYKVSNRFSGVPDRFSGSGSGTDFTLKISRVEAEDVGVYYCSQNTHVPPTFGQGTKVEIERTVAAPSVFIFPPSDEQLKSGTASVVCLLNNFYPREAKVQWKVDNALQSGNSQESVTEQDSKDSTYSLSSTLTLSKADYEKHKVYACEVTHQGLSSPVTKSFNRGEC
106 % of HeCon Ab (=100)	GpH7-A5/GpH7-B3 variant S337_09D/GpL16-k0 (antibody, human IgG1, kappa, mutation in one H chain only; also called He Ab S337_09D; S337D) heavy 1: not shown heavy 2: not shown light: DIVMTQSPLSLPVTPGEPASISCQASESLVHSNRNTYLHWYLQKPGQSPQLLIYKVSNRFSGVPDRFSGSGSGTDFTLKISRVEAEDVGVYYCSQNTHVPPTFGQGTKVEIERTVAAPSVFIFPPSDEQLKSGTASVVCLLNNFYPREAKVQWKVDNALQSGNSQESVTEQDSKDSTYSLSSTLTLSKADYEKHKVYACEVTHQGLSSPVTKSFNRGEC
106 % of HeCon Ab (=100)	GpH7-A5/GpH7-B3 variant S337_12R/GpL16-k0 (antibody, human IgG1, kappa, mutation in one H chain only; also called He Ab S337_12R; S337R) heavy 1: not shown heavy 2: not shown light: DIVMTQSPLSLPVTPGEPASISCQASESLVHSNRNTYLHWYLQKPGQSPQLLIYKVSNRFSGVPDRFSGSGSGTDFTLKISRVEAEDVGVYYCSQNTHVPPTFGQGTKVEIERTVAAPSVFIFPPSDEQLKSGTASVVCLLNNFYPREAKVQWKVDNALQSGNSQESVTEQDSKDSTYSLSSTLTLSKADYEKHKVYACEVTHQGLSSPVTKSFNRGEC
107 % of HeCon Ab (=100)	GpH7-A5/GpH7-B3 variant T335_15Y/GpL16-k0 (antibody, human IgG1, kappa, mutation in one H chain only; also called He Ab T335_15Y; T335Y) heavy 1: not shown heavy 2: not shown light: DIVMTQSPLSLPVTPGEPASISCQASESLVHSNRNTYLHWYLQKPGQSPQLLIYKVSNRFSGVPDRFSGSGSGTDFTLKISRVEAEDVGVYYCSQNTHVPPTFGQGTKVEIERTVAAPSVFIFPPSDEQLKSGTASVVCLLNNFYPREAKVQWKVDNALQSGNSQESVTEQDSKDSTYSLSSTLTLSKADYEKHKVYACEVTHQGLSSPVTKSFNRGEC
100 % of HeCon Ab (=100)	GpH7-A5/GpH7-B3 variant V266_19Q/GpL16-k0 (antibody, human IgG1, kappa, mutation in one H chain only; also called He Ab V266_19Q; V266Q) heavy 1: not shown heavy 2: not shown light: DIVMTQSPLSLPVTPGEPASISCQASESLVHSNRNTYLHWYLQKPGQSPQLLIYKVSNRFSGVPDRFSGSGSGTDFTLKISRVEAEDVGVYYCSQNTHVPPTFGQGTKVEIERTVAAPSVFIFPPSDEQLKSGTASVVCLLNNFYPREAKVQWKVDNALQSGNSQESVTEQDSKDSTYSLSSTLTLSKADYEKHKVYACEVTHQGLSSPVTKSFNRGEC
113 % of HeCon Ab (=100)	GpH7-A5/GpH7-B3 variant T335_12R/GpL16-k0 (antibody, human IgG1, kappa, mutation in one H chain only; also called He Ab T335_12R; T335R) heavy 1: not shown heavy 2: not shown light: DIVMTQSPLSLPVTPGEPASISCQASESLVHSNRNTYLHWYLQKPGQSPQLLIYKVSNRFSGVPDRFSGSGSGTDFTLKISRVEAEDVGVYYCSQNTHVPPTFGQGTKVEIERTVAAPSVFIFPPSDEQLKSGTASVVCLLNNFYPREAKVQWKVDNALQSGNSQESVTEQDSKDSTYSLSSTLTLSKADYEKHKVYACEVTHQGLSSPVTKSFNRGEC
109 % of HeCon Ab (=100)	GpH7-A5/GpH7-B3 variant T335_10E/GpL16-k0 (antibody, human IgG1, kappa, mutation in one H chain only; also called He Ab T335_10E; T335E) heavy 1: not shown heavy 2: not shown light: DIVMTQSPLSLPVTPGEPASISCQASESLVHSNRNTYLHWYLQKPGQSPQLLIYKVSNRFSGVPDRFSGSGSGTDFTLKISRVEAEDVGVYYCSQNTHVPPTFGQGTKVEIERTVAAPSVFIFPPSDEQLKSGTASVVCLLNNFYPREAKVQWKVDNALQSGNSQESVTEQDSKDSTYSLSSTLTLSKADYEKHKVYACEVTHQGLSSPVTKSFNRGEC
104 % of HeCon Ab (=100)	GpH7-A5/GpH7-B3 variant S337_15Y/GpL16-k0 (antibody, human IgG1, kappa, mutation in one H chain only; also called He Ab S337_15Y; S337Y) heavy 1: not shown heavy 2: not shown light: DIVMTQSPLSLPVTPGEPASISCQASESLVHSNRNTYLHWYLQKPGQSPQLLIYKVSNRFSGVPDRFSGSGSGTDFTLKISRVEAEDVGVYYCSQNTHVPPTFGQGTKVEIERTVAAPSVFIFPPSDEQLKSGTASVVCLLNNFYPREAKVQWKVDNALQSGNSQESVTEQDSKDSTYSLSSTLTLSKADYEKHKVYACEVTHQGLSSPVTKSFNRGEC
106 % of HeCon Ab (=100)	GpH7-A5/GpH7-B3 variant S337_10E/GpL16-k0 (antibody, human IgG1, kappa, mutation in one H chain only; also called He Ab S337_10E; S337E) heavy 1: not shown heavy 2: not shown light: DIVMTQSPLSLPVTPGEPASISCQASESLVHSNRNTYLHWYLQKPGQSPQLLIYKVSNRFSGVPDRFSGSGSGTDFTLKISRVEAEDVGVYYCSQNTHVPPTFGQGTKVEIERTVAAPSVFIFPPSDEQLKSGTASVVCLLNNFYPREAKVQWKVDNALQSGNSQESVTEQDSKDSTYSLSSTLTLSKADYEKHKVYACEVTHQGLSSPVTKSFNRGEC
111 % of HeCon Ab (=100)	GpH7-A5/GpH7-B3 variant T335_11K/GpL16-k0 (antibody, human IgG1, kappa, mutation in one H chain only; also called He Ab T335_11K; T335K) heavy 1: not shown heavy 2: not shown light: DIVMTQSPLSLPVTPGEPASISCQASESLVHSNRNTYLHWYLQKPGQSPQLLIYKVSNRFSGVPDRFSGSGSGTDFTLKISRVEAEDVGVYYCSQNTHVPPTFGQGTKVEIERTVAAPSVFIFPPSDEQLKSGTASVVCLLNNFYPREAKVQWKVDNALQSGNSQESVTEQDSKDSTYSLSSTLTLSKADYEKHKVYACEVTHQGLSSPVTKSFNRGEC
